OD450 nm and average fluorescence intensity data for four molecules are collected here from patent US20200347144A1 (SHANGHAI HYAMAB BIOTECH, published 2020).

The target of assay [1] is T1, hFc-tagged human 4-1BB extracellular domain protein (4-1BB-hFc) (human, UniProt Q07011 24-186, limits assumed).
T1 construct: also called immunogen A; 4-1BB^ECD-hFc; not shown: human IgG Fc fragment (hFc) of the pCpC vector
In words: ELISA, coated human 4-1BB-hFc; Ab 0.4 ug/ml. As for the experimental part: (§1) The purified immunogen A (4-1BB-hFc), monkey 4-1BB-his, and mouse 4-1BB-his obtained in Example 1 [for the preparation method, see step 1 of Example 1, preparation of immunogen A], of which the extracellular domain of monkey-derived 4-1BB protein (purchased from ACRO biosystems), the extracellular domain of mouse 4-1BB protein (purchased from sino biological) or other immune detection point proteins respectively were diluted with PBS to a final concentration of 1.0 μg/mL, then added with […] per well to 96-well ELISA plate. It was sealed with plastic film and incubated at 4° C. overnight. The next day, the plate was washed twice with the plate-washing solution [PBS containing 0.01% (v/v) Tween20] and blocking solution [PBS containing 0.01% (v/v) Tween 20 and 1% (v/v) BSA] was added and blocked at room temperature for 2 hours. The blocking solution was discarded and 100 μl of the purified 4-1BB antibody obtained in Example 2 was added per well. After incubated at 37° C. for 2 hours, the plate was washed 3 times with a plate-washing solution [PBS containing 0.01% (v/v) Tween20]. A secondary antibody (purchased from Sigma) labeled with HRP (horseradish peroxidase) was added, and after incubated at 37° C. for 2 hours, the plate was washed 3 times with a plate-washing solution [PBS containing 0.01% (v/v) Tween20]. 100 μl of TMB substrate was added per well. After incubated for 30 minutes at room temperature, 100 μl of stop buffer (1.0N HCl) was added per well. The A450 nm values were read using an ELISA plate reader (SpectraMax 384plus, Molecular Device).

Assay [2] concerns the target T2, human 4-1BB, full length, on transfected cells (human, UniProt Q07011 24-255).
T2 construct: whole, on cells; also called CHOK1-h4-1BB
In words: FACS, CHOK1-h4-1BB cells; Ab 2 ug/ml. In short, it runs like this:
(§2)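 CHOK1 stable lines expressing human or monkey 4-1BB were detached with enzyme-free Versene, blocked in 1% goat serum on ice for 30 min and resuspended at 2×10⁶ cells/mL in HBSS with 1% BSA. Purified antibody was bound on ice for 2 h, then cells were fixed in 4% paraformaldehyde and analysed by flow cytometry.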
In general terms: Flow cytometry measures light scatter and fluorescence of single cells or particles in a stream.

Assay [3] deals with T2, human 4-1BB, full length, on …. In words: FACS, CHOK1-h4-1BB cells; Ab 0.08 ug/ml. Put shortly:
as §2

Assay [4] deals with T1, hFc-tagged human 4-1BB extracellular …. In words: ELISA, coated human 4-1BB-hFc; Ab 0.0001 ug/ml. As to the method:
as §1
On the technique in general: An ELISA detects its analyte on a solid surface through an enzyme-linked reagent.

Assay [5] concerns the target T3, monkey 4-1BB on CHOK1 cells (monkey).
T3 construct: whole, on cells; also called CHOK1-c4-1BB
The assay is described as follows: FACS, CHOK1-c4-1BB cells; Ab 0.08 ug/ml. In short, it runs like this: as §2

For assay [6], the target named is T1, hFc-tagged human 4-1BB extracellular …. In words: ELISA, coated human 4-1BB-hFc; Ab 0.0006 ug/ml. As for the experimental part:
as §1

Assay [7] concerns the target T2, human 4-1BB, full length, on …. The assay is described as follows: FACS, CHOK1-h4-1BB cells; Ab 0.00064 ug/ml. Put shortly:
as §2

In assay [8] the target is T3, monkey 4-1BB on CHOK1 cells. In words: FACS, CHOK1-c4-1BB cells; Ab 0.00064 ug/ml. Put shortly:
as §2

Assay [9] shares this target. The assay is described as follows: FACS, CHOK1-c4-1BB cells; Ab 0.0032 ug/ml. In short, it runs like this: as §2
The target is the same in assay [10]. The assay is described as follows: FACS, CHOK1-c4-1BB cells; Ab 0.4 ug/ml. Put shortly:
as §2

Assay [11] has as its target T1, hFc-tagged human 4-1BB extracellular …. In words: ELISA, coated human 4-1BB-hFc; Ab 2 ug/ml. As to the method: as §1
For assay [12], the target named is T2, human 4-1BB, full length, on …. The assay is described as follows: FACS, CHOK1-h4-1BB cells; Ab 0.00013 ug/ml. Put shortly: as §2
In assay [13] the target is T3, monkey 4-1BB on CHOK1 cells. In words: FACS, CHOK1-c4-1BB cells; Ab 10 ug/ml. In short, it runs like this: as §2
Assay [14] deals with T2, human 4-1BB, full length, on …. The assay is described as follows: FACS, CHOK1-h4-1BB cells; Ab 0.0032 ug/ml. In short, it runs like this: as §2

T2 sequence (Q07011 24-255): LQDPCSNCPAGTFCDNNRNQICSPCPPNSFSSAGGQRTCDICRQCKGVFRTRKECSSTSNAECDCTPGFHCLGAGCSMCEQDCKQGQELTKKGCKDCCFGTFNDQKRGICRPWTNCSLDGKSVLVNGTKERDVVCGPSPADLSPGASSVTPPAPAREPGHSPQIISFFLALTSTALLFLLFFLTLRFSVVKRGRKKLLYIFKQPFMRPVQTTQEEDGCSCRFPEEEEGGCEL

B1: 259G10E11 (antibody, V domains shown)
VH: QVQLVESGGGVVQPGRSLRLSCAASGFTFSSYGMHWVRQAPGKGLEWVAVIWYDGSNKYYADSVKGRFTISRDNSKNTLYLQMNSLRAEDTAVYYCARGPYLYSSGWYDYYYYGMDVWGQGTTVTVSS
VL: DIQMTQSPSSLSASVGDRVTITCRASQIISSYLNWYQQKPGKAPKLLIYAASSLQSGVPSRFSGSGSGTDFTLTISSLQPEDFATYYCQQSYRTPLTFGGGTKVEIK
B1: the OD450 nm in assay [1] is 2.79 OD450 nm; in [4], 0.07 OD450 nm; in assay [6], 0.11 OD450 nm; in assay [11], 2.8 OD450 nm. Also, the average fluorescence intensity in assay [2] stood at 803 MFI; in assay [3], 252 MFI; in [5], 25.4 MFI; in assay [7], 7.1 MFI; in [8], 2.9 MFI; in assay [9], 4.3 MFI. For the same molecule, the average fluorescence intensity in assay [10] is 64.3 MFI; in assay [12], 3.9 MFI; in [13], 126 MFI; in assay [14] it was 19.4 MFI.

B2: 11H10C9 (antibody, V domains shown)
VH: QVQLVESGGGVVQPGRSLRLSCAASGFTFSSYAMHWVRQAPGKGLEWVAIIWYDGSNQYYADSVKGRFTISRDNSMNTLYLQMNSLRAEDTAVYYCARVEQWLVSYFDFWGQGTLVTVSS
VL: EIVMTQSPATLSVSPGERATLSCRASQSVSSNLAWYQQKPGQVPRLLIYGASTRATGIPARFSGSGSGTEFTLTISSLQSEDFAVYYCQQYNNWPTFGGGTKVEIK
With B2, the OD450 nm in assay [1] is 3.58 OD450 nm; in assay [4], 0.15 OD450 nm; in assay [6], 0.19 OD450 nm; in assay [11], 3.59 OD450 nm. The average fluorescence intensity in [2] is 520 MFI; in [3], 200 MFI; in assay [5], 82.6 MFI; in [7] it was 6.4 MFI; in assay [8], 3.7 MFI; in [9], 10.4 MFI. Also, the average fluorescence intensity in assay [10] was found to be 298 MFI; in assay [12] it was 3.5 MFI; in assay [13] it was 736 MFI; in assay [14] it was 18.3 MFI.

B3: 15G10D4 (antibody, V domains shown)
VH: QVQLVESGGGVVQPGRSLRLSCAASGFSFSSYAMHWVRQAPGKGLEWVAIIWYDGSNQYYADSVKGRFTISRDNSKNTLYLQMNSLRAEDTAVYYCARVKQWLVSYFDYWGQGTLVTVSS
VL: EIVMTQSPATLSVSPGERATLSCRASQSVSSNLAWYQQKPGQVPRLLIYGASTRATGIPARFSGSGSGTEFSLIISSLQSEDFAVYYCQQYNNWPTFGGGTKVEIK
For B3, the OD450 nm in [1] stood at 3.55 OD450 nm; in assay [4], 0.17 OD450 nm; in assay [6], 0.19 OD450 nm; in assay [11], 3.61 OD450 nm. The average fluorescence intensity in assay [2] amounted to 521 MFI; in [3], 322 MFI; in assay [5], 156 MFI; in assay [7], 9.3 MFI; in [8], 4.8 MFI; in assay [9] it was 12 MFI. In addition, the average fluorescence intensity was determined as 359 MFI in assay [10], 4.2 MFI in assay [12], 550 MFI in assay [13] and 28.8 MFI in assay [14].

B4: 263A11E3 (antibody, V domains shown)
VH: QVQLQESGPGLVKPSETLSLTCAVSGYSISSGYYWGWIRQPPGKGLEWIGSIYHSGSTSYNPSLRSRVTISVDTSKNQFSLKLSSVTAADTAVYYCARDAGGFDYWGQGTLVTVSS
VL: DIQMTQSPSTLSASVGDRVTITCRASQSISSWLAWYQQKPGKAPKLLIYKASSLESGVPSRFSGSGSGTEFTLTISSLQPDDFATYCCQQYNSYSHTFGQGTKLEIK
B4: the OD450 nm stood at 2.75 OD450 nm in assay [1], 0.07 OD450 nm in [4], 0.1 OD450 nm in assay [6] and 2.74 OD450 nm in assay [11]. Also, the average fluorescence intensity in [2] amounted to 1690 MFI; in [3], 356 MFI; in [5] it was 21.1 MFI; in assay [7], 8 MFI; in assay [8], 2.8 MFI; in [9], 3.8 MFI. For the same molecule, the average fluorescence intensity in assay [10] was determined as 56.5 MFI; in [12], 4 MFI; in assay [13], 124 MFI; in assay [14] it was 22.9 MFI.
